What all share (test): cell-based or functional assay
One assay concerns the target dog RXFP1 (dog).
Assay [1] concerns the target T1, human RXFP1 (human, UniProt Q9HBX9 1-757).
T1 sequence (looked up): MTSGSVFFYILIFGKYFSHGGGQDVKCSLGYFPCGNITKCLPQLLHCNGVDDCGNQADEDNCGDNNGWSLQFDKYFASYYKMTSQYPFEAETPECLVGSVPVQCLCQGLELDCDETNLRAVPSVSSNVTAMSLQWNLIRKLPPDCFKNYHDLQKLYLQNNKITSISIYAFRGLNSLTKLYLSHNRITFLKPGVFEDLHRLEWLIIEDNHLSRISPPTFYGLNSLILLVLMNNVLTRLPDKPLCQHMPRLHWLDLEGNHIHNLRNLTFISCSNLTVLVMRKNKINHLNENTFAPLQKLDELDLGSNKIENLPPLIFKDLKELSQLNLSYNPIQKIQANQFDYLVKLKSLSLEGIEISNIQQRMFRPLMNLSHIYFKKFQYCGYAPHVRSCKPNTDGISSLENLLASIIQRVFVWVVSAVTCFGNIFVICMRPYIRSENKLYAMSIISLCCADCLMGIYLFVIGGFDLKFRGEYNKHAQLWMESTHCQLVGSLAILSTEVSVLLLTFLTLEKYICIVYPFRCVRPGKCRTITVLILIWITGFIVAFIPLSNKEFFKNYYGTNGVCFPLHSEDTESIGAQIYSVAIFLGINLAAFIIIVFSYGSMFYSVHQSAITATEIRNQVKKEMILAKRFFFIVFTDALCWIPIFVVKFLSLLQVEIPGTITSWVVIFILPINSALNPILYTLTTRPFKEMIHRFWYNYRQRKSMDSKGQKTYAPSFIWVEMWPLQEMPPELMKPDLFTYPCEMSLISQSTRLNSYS

Another assay has as its target human RXFP4 (human, UniProt Q8TDU9 1-374).
The next assay concerns the target T2, mouse RXFP1 (mouse, UniProt Q6R6I7 1-758).
T2 sequence (looked up): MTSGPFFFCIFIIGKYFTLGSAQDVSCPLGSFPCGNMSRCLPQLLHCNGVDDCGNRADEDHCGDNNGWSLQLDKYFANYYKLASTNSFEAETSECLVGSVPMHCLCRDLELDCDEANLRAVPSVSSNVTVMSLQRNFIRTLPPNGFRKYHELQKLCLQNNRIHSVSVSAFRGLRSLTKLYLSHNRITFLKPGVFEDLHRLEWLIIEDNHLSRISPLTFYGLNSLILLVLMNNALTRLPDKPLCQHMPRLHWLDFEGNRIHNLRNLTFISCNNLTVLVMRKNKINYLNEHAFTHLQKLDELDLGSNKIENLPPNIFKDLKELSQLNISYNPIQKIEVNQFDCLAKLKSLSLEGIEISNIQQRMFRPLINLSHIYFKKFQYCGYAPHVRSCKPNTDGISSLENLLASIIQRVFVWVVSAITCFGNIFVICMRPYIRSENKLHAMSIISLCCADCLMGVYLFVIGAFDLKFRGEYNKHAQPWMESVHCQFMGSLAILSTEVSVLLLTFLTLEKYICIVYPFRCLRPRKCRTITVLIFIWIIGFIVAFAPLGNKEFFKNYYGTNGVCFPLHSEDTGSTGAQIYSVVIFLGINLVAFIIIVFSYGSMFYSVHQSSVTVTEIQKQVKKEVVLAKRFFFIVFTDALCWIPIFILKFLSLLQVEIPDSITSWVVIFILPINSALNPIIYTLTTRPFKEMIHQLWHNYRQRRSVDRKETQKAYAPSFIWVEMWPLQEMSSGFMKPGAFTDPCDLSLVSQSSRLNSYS

A further assay addresses T3, human RXFP3 (human, UniProt Q9NSD7 1-469).
T3 sequence (looked up): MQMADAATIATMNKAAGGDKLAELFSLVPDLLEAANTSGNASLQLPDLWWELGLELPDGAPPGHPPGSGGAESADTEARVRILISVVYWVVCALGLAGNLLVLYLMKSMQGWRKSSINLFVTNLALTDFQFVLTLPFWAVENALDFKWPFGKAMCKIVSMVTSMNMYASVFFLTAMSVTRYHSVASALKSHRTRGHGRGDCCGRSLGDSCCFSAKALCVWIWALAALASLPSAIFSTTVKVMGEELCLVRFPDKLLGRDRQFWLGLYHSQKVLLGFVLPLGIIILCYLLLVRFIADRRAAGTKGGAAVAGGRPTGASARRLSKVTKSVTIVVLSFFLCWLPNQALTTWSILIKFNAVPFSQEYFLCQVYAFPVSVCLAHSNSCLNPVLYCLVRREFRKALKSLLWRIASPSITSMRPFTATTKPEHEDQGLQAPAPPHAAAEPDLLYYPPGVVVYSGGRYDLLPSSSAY

In a further assay the target is T4, rat RXFP1 (rat, UniProt Q6R6I6 1-758).
T4 sequence (looked up): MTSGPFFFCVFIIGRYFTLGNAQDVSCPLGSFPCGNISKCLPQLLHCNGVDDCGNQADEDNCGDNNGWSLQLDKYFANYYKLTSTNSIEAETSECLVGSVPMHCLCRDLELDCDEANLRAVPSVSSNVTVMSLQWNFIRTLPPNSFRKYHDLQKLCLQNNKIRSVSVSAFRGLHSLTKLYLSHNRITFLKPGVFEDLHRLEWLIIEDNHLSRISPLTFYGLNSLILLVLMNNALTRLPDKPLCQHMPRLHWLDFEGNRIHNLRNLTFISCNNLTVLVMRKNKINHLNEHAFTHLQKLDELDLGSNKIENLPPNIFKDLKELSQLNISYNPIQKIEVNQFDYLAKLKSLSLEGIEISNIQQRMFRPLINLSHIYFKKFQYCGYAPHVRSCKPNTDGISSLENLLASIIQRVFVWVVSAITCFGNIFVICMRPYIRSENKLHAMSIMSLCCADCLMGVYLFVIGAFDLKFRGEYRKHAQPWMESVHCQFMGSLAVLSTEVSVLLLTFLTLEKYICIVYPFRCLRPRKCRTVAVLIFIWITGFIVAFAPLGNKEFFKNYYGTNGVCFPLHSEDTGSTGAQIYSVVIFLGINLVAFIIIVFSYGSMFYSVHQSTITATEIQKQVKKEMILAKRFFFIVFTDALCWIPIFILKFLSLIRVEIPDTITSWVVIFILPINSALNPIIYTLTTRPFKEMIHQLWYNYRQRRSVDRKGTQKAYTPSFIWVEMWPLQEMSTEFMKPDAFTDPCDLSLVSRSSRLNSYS

The next assay concerns the target T5, cynomolgus monkey RXFP1 (cynomolgus monkey, UniProt H9ERA2 1-757 (rhesus entry)).
T5 sequence: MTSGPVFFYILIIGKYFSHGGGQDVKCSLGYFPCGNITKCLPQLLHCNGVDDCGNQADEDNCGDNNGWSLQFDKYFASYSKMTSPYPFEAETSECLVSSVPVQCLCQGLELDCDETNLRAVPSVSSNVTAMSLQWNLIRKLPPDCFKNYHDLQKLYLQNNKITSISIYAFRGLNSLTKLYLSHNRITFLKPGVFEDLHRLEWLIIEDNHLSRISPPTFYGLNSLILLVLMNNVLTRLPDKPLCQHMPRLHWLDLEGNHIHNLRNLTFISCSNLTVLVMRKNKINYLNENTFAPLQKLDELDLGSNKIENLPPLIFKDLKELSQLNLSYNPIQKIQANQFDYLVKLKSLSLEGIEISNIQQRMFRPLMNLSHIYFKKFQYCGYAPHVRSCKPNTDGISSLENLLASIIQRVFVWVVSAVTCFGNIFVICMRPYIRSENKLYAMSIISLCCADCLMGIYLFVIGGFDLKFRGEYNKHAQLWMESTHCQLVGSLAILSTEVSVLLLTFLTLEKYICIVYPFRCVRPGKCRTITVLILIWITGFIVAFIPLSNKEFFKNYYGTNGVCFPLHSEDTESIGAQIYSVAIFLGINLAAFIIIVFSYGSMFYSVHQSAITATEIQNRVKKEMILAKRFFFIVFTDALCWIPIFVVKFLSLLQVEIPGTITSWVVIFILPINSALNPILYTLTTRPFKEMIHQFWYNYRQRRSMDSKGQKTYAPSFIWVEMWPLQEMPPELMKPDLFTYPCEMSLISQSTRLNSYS

Assay [2] has as its target T1, human RXFP1. The source holds these as a separate data set.

Several values for one entry are separate records, joined by “and”; a condition that tells them apart may be missing. Equal entries are not always repeated. Positions of bridges follow the written chain, without caps; N, C: chain ends. Chains are numbered I, II in the order given. No end group written: not given here. Bounds are passed on as bounds.

human RXFP4, sequence (Q8TDU9 whole entry): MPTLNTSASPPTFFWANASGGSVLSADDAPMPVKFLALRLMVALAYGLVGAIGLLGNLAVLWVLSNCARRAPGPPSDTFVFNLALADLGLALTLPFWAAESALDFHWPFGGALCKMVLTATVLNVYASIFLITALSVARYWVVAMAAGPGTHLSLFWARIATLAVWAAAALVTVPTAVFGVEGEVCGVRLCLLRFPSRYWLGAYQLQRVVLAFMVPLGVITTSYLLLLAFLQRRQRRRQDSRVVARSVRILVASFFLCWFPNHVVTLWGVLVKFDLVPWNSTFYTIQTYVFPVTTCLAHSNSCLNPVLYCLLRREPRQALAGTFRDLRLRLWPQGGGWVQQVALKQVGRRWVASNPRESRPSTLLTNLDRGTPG

B1: wild-type relaxin (human relaxin 2) (ligand)
chain 1: QLYSALANKCCHVGCTKRSLARFC
chain 2: DSWMEEVIKLCGRELVRAQIAICGMSTWS
modifications: disulfide I:10-I:15, I:11-II:11, I:24-II:23
For B1, the “cAMP Assay EC50 (nM), dog RXFP1/CHO-K1 cells” value with dog RXFP1 was 0.56 nM. Also, in the assay with human RXFP1 [1], the “cAMP Assay EC50 (nM), THP-1 cells” value came to 0.3 nM and the “cAMP Assay EC50 (nM), hRXFP1/CHO-K1 cells” value came out at 0.1 nM. In addition, the “cAMP Assay EC50 (nM), inhibition of forskolin-induced cAMP, human RXFP4/CHO-K1 cells” value with human RXFP4 is over 3000 nM. In addition, in the assay with mouse RXFP1, the “cAMP Assay EC50 (nM), mouse RXFP1/CHO-K1 cells” value amounted to 0.1 nM. In the assay with human RXFP3, the “cAMP Assay EC50 (nM), inhibition of forskolin-induced cAMP, human RXFP3/CHO-K1 cells” value is over 3000 nM. The “cAMP Assay EC50 (nM), rat RXFP1/CHO-K1 cells” value in the assay with rat RXFP1 is 0.03 nM. For the same molecule, in the assay with cynomolgus monkey RXFP1, the “cAMP Assay EC50 (nM), cyno RXFP1/CHO-K1 cells” value is 0.06 nM. For the same molecule, in the assay with human RXFP1 [2], the “Functional Assay Raw EC50 Values [ng/mL]; cAMP increase in THP-1 cells, 11/4/2010” value was found to be 1.5 ng/mL; the “Functional Assay Raw EC50 Values [ng/mL]; cAMP increase in THP-1 cells, 11/5/2010” value is 1.5 ng/mL and 1 ng/mL.

The values are drawn from US20240189392A1 (AMBRX, published 2024).
